Substitutions are numbered along the chain they refer to.
T1: mouse P2X7 (mouse, UniProt Q9Z1M0 1-595)
T1 sequence: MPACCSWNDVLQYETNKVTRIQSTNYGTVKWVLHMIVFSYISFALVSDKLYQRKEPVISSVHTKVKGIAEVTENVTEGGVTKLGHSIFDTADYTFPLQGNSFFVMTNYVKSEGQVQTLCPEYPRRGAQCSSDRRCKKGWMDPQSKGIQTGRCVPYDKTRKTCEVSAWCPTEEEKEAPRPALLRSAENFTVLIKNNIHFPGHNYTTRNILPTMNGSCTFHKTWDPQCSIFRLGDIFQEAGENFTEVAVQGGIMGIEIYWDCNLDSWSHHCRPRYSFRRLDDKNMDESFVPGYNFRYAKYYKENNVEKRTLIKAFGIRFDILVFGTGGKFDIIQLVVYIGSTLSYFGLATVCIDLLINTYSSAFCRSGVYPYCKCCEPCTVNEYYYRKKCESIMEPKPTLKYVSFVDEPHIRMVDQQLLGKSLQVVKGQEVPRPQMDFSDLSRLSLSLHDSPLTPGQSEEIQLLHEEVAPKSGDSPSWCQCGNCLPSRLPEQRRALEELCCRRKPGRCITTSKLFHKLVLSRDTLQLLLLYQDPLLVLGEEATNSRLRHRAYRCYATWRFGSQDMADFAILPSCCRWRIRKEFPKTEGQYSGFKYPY

T2: human P2X4 (human, UniProt Q99571 1-388)
T2 construct: whole, on cells; also called hP2X4
T2 sequence (looked up): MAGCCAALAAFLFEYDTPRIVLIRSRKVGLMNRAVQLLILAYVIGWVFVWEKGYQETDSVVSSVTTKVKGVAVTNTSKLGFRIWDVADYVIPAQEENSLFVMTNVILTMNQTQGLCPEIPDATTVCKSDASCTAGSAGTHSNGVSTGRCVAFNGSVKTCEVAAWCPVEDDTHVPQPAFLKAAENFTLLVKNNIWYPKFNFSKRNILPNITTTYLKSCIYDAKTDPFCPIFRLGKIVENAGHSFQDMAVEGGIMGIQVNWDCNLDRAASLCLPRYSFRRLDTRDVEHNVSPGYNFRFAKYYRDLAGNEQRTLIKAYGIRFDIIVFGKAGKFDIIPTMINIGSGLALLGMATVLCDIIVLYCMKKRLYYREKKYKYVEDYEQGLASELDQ

T3: human P2X7 (human, UniProt Q99572 1-595)
T3 construct: on transfected Hek293 cells; also called hP2X7
T3 sequence: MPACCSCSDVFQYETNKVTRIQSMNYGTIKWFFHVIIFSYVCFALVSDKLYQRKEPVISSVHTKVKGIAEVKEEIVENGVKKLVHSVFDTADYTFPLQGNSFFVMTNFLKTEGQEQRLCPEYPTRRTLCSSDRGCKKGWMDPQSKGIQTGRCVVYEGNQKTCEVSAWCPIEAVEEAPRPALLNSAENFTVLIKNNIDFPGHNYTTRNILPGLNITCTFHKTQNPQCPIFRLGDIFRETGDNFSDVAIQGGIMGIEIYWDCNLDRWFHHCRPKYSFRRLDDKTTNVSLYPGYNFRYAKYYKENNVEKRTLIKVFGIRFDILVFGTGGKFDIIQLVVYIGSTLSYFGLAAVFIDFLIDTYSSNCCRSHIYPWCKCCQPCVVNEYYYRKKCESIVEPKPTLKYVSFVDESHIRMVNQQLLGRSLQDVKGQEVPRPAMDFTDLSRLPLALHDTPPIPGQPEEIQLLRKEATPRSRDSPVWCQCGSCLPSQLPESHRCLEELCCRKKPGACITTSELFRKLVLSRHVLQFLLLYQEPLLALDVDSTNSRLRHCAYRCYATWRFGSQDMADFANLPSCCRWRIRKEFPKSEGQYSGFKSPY

B1: P2X7PMP8C7 (VHH)
VHH: EMQLVESGGGLVQAGGSLRLSCAASGRTFSSLAMGWLRQAPGKEREFVSGISRGGTSTYYADSVKGRFTISRDNAKNTMYLQMNSLKPEDTAVYYCAGSPVLSIVLDTRGLEYWGQGTQVTVSS
notes: family 7; on phage or c-myc/His6-tagged in assays
B2: P2X7PMP8E7 (VHH)
VHH: B1 VHH with M2V
notes: as for B1
B3: P2X7PMP13B5 (VHH)
VHH: EVQLVESGGGLVQAGDSLRLSCAASGRTFSSYAMGWFRQAPGKEREFVAAISLSGSMTYYADSMKGRFTISRDNAKNTVYLQMNSLKPEDTAVYYCAAEELGDGLGYLAYRYDYWGQGTQVTVSS
notes: family 19; on phage or c-myc/His6-tagged in assays
B4: P2X7PMP13G9 (VHH)
VHH: EVQLVESGGGLVQAGGSLRLSCVASGRTFSILTMGWFRQAPGKEREFVAAISGIGAIHYADSVKGRFTLSRDNARNTVSLHMNSLKPEDTAVYYCAAKANYESPSRETSYAYWGQGTQVTVSS
notes: family 23; on phage or c-myc/His6-tagged in assays
B5: P2X7PMP4B4 (VHH)
VHH: EVQLVESGGGLVQAGGSLRLSCAASGRTVSDYGMGWFRQAPGKLREFVASINWSGIYTRYIDSVEGRFTISRDNTKNTLYLQMNNLKAEDTAVYYCAYFLGPNWYSNYGRPSSYDFYGQGTQVTVSS
notes: family 4; on phage or c-myc/His6-tagged in assays
B6: P2X7PMP7D6 (VHH)
VHH: EVQLVESGGGLVQAGGSLRLSCAASGRTFGSSPVGWFRQAPGKERDFVATISWNGVDTHYLDSVKGRFTISRDNAKNTVHLQMHILKPEDTALYYCAASTSGSVYLPYRVYQYDSWGQGTQVTVSS
notes: family 8; on phage or c-myc/His6-tagged in assays
B7: P2X7PMP7G5 (VHH)
VHH: EVQLVESGGGLVQSGGSLRLSCAGSGFSYYIIGWFRQAPGKEREEVSCIRVTDGSTYYTNSVKGRFTMSRDNAENTVYLQMNSLKPEDTAVYSCATECQRWAYPNRIGARGQGTQVTVSS
notes: family 12; on phage or c-myc/His6-tagged in assays
B8: P2X7PMP2A6 (VHH)
VHH: EVQLVESGGDVVQAGGSLRLSCLASGFTFDDYAIGWFRQAPGKEREGISCISSTGNVFYADSVKGRFTISSDKEKNTLYLQMNSLEPEDTAVYHCAAGHFTVDSGKVLLRTDISSWGQGTQVTVSS
notes: family 1; on phage or c-myc/His6-tagged in assays
B9: P2X7PMP7A4 (VHH)
VHH: EVQLVESGGGLVQAGGSLRVSCAASARTGSYSMGWFRQAPGKEREFVSTISWNGADTVYADSVKGRFTISRDNAKDTVYLQMNSLKPEDTAVYYCAGSITSYVSTWQHDYEYWGQGTQVTVSS
notes: family 9; on phage or c-myc/His6-tagged in assays
B10: P2X7PMP7B4 (VHH)
VHH: EVQLVESGGGLVQAGGSLRLSCAASGRNFGSYTMAWFRQAPGKGREFVSTINWSGGDTDYADSVKGRFTISRDNAKNTVYLQMDSLKPEDTAVYYCAAGLEYMSTIRYTYEYWGQGTQVTVSS
notes: family 10; on phage or c-myc/His6-tagged in assays
B11: P2X7PMP13B8 (VHH)
VHH: EVQLVESGGGLVQPGGSLRLSCAASGLTLTYYNIGWFRQAPGKEREGVSCIDWTDGTTFYADSVKGRFTISTDNAKNTVYLHLNSLEPEDTAVYYCAAGWGRVMTVQHMCADRSLFTSWGQGTQVTVSS
notes: family 13; on phage or c-myc/His6-tagged in assays
B12: P2X7PMP19C2 (VHH)
VHH: EVQLVKSGGGLVQAGGSLRLSCAASPGTFSSFNMGWFRQTPGKEREFVAATSWSDISTYYADSVKGRFTISRDNAKNTVTLEMNSLKPEDTAVYYCAAGYYRGGYLGYRLTLEGSYDVWGQGTQVTVSS
notes: family 15; on phage or c-myc/His6-tagged in assays
B13: P2X7PMP19E3 (VHH)
VHH: B12 VHH with V2M, K6E
notes: as for B12
B14: P2X7PMP13G5 (VHH)
VHH: EVQLVESGGGLVQAGGSLRLSCAASDRTFGSSAMGWFRQAPGKDRDFVAAISWSGSSTHYADSVKGRFTISRDNAKNTMYLQMNSLKPADTAVYTCAASRRAYLPAKVGEYDFWGQGTQVTVSS
notes: family 18; on phage or c-myc/His6-tagged in assays
B15: P2X7PMP13G4 (VHH)
VHH: EVQLVESGGGLVQAGGSLRLSCAASDRTFGSSTMGWFRQPPGKNREFVATIAWSATTTHYADAVKGRFTVSRDNALNTVYLQMNSLKPEDTAVYYCAATLTWLGIHEYEYNTWGQGTQVTVSS
notes: family 21; on phage or c-myc/His6-tagged in assays
B16: P2X7PMP14F6 (VHH)
VHH: EVQLVESGGGLVQAGGPLRLSCAASGSFFRVNNMAWYRQAPGKQRELVADITRGDRTNYADSVNGRFTISRDNVRNTVYLQMNGLKPEDTAVYYCYARIELGVLEPRDYWGQGTQVTVSS
notes: family 5, 2; on phage or c-myc/His6-tagged in assays
B17: P2X7PMP14F10 (VHH)
VHH: B16 VHH with P17S, S21L, Y94S, V103I
notes: as for B16
B18: P2X7PMP14G4 (VHH)
VHH: B16 VHH with P17S, R19G, S27N, N33T, S62T, V92A
notes: as for B16
B19: P2X7PMP14G11 (VHH)
VHH: B16 VHH with Q13K, A14P, P17S, A40G, R98T
notes: family 5, 3; on phage or c-myc/His6-tagged in assays

Experiments:
mouse P2X7 [1] = molecular target: T1, mouse P2X7; assay: cell-based or functional assay
human P2X4 = molecular target: T2, human P2X4; assay: flow cytometry, Nanobody pre-incubated with anti-Myc-FITC
human P2X7 = molecular target: T3, human P2X7; assay: as above
mouse P2X7 [2] = molecular target: T1, mouse P2X7; assay: phage ELISA on fixed mP2X7-CHO vs untransfected CHO cells;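 further: phage culture supernatant diluted 10-fold, applied for 1 h to paraformaldehyde-fixed, BSA-blocked cells in 96-well plates, with bound phage read via HRP-linked anti-M13 antibody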
Experimental: (§1) Sub-confluent cells were rinsed with PBS and fixed using 4% paraformaldehyde in PBS for 10 minutes at RT. Fixed cells were washed three times with PBS, and blocked with 2% BSA in PBS for 2 hours. Following blocking, 10-fold diluted culture supernatant containing phage was added and incubated for 1 hour. Cell-bound phage was detected via mouse anti-M13-HRP-conjugate (GE Healthcare, Cat nr. E2886). Rat mAb Hano43 was used as positive control.

mouse P2X7 [3] = molecular target: T1, mouse P2X7; assay: phage ELISA, mP2X7-CHO vs control CHO cells
Experimental: as §1

mouse P2X7 [4] = molecular target: T1, mouse P2X7; assay: flow cytometry, periplasmic extract pre-incubated with anti-myc-FITC, on mP2X7-Hek293 cells;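 further: periplasmic extract diluted 10-fold and premixed 45 min at 4 °C with FITC anti-myc antibody, giving pseudo-bivalent Nanobodies, before binding to the cells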
Experimental: Ten-fold diluted PE were pre-incubation with 0.5 μg anti-myc FITC-conjugated antibodies (AbD Serotec, cat no. MCA2200F) (creating pseudo-bivalent Nanobodies in order to increase binding strength) in 0.1 ml PBS/10% FCS for 45 minutes at 4° C. […] Alternatively, sequential staining of 10-fold diluted PE with anti-myc FITC-conjugated antibodies was done after incubation with the cells.

| Binder | IC50 (nM) against 20 uM NAD (CD62L shedding, Yac-1 cells) (mouse P2X7 [1]) | IC50 (nM) against 100 uM ATP (CD62L shedding, Yac-1 cells) (mouse P2X7 [1]) | binding result (human P2X4) | binding result (human P2X7) | Fold Cho P2X7/wt (phage ELISA) (mouse P2X7 [2]) | ATP IC50 by 2 uM NB (head prints 'mM'; ligand titration at fixed Nanobody, CD62L shedding, Yac-1 cells) (mouse P2X7 [1]) | absorption ratio (ELISA) (mouse P2X7 [3]) | MFI FACS (pre-Myc incubation) (mouse P2X7 [4]) |
| --- | --- | --- | --- | --- | --- | --- | --- | --- |
| B1 | 4000 nM | 386 nM | no binding (tested: 147 nM) | no binding (tested: 147 nM) | 21 fold | – | – | – |
| B2 | 4000 nM | 576 nM | no binding (tested: 147 nM) | no binding (tested: 147 nM) | 16 fold | – | – | – |
| B3 | 3650 nM | 436 nM | no binding (tested: 147 nM) | no binding (tested: 147 nM) | 28 fold | 0.2 mM | – | – |
| B4 | 136 nM | 35 nM | no binding (tested: 147 nM) | no binding (tested: 147 nM) | 17 fold | 0.469 mM | – | – |
| B5 | – | – | no binding (tested: 147 nM) | no binding (tested: 147 nM) | 19 fold | 0.047 mM | – | – |
| B6 | – | – | no binding (tested: 147 nM) | no binding (tested: 147 nM) | 18 fold | – | – | – |
| B7 | – | – | no binding (tested: 147 nM) | no binding (tested: 147 nM) | 30 fold | – | – | – |
| B8 | – | – | no binding (tested: 147 nM) | no binding (tested: 147 nM) | 8 fold | – | – | – |
| B9 | – | – | no binding (tested: 147 nM) | no binding (tested: 147 nM) | 32 fold | – | – | – |
| B10 | – | – | no binding (tested: 147 nM) | no binding (tested: 147 nM) | 23 fold | – | – | – |
| B11 | – | – | no binding (tested: 147 nM) | no binding (tested: 147 nM) | 24 fold | – | – | – |
| B12 | – | – | – | – | – | – | 18 ratio | 64 MFI |
| B13 | – | – | – | – | – | – | 8 ratio | 55 MFI |
| B14 | – | – | no binding (tested: 147 nM) | no binding (tested: 147 nM) | 35 fold | – | – | – |
| B15 | – | – | no binding (tested: 147 nM) | no binding (tested: 147 nM) | 56 fold | – | – | – |
| B16 | – | – | – | – | – | – | 15 ratio | – |
| B17 | – | – | – | – | – | – | 19 ratio | – |
| B18 | – | – | – | – | – | – | 34 ratio | – |
| B19 | – | – | – | – | – | – | 30 ratio | – |
